Experimental findings from paper PMC4787834 are described below.

Data set [1] has as its target T1, MsmUdgX (Mycobacterium smegmatis mc2 155, UniProt A0QP43 1-209).
T1 sequence: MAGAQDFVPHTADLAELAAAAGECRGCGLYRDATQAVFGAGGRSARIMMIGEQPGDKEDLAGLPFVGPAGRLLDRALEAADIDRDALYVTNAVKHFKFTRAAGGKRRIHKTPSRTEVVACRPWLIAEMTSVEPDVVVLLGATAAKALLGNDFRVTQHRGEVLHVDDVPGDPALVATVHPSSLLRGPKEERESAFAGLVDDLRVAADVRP
Nature of the data set: SDS-PAGE complex shift.

The target of data set [2] is T1, MsmUdgX. Description: 8 M urea-PAGE complex shift.
Another data set deals with T2, MsmUdgX F4 (Mycobacterium smegmatis mc2 155, UniProt A0QP43 1-209, Q53A).
T2 sequence: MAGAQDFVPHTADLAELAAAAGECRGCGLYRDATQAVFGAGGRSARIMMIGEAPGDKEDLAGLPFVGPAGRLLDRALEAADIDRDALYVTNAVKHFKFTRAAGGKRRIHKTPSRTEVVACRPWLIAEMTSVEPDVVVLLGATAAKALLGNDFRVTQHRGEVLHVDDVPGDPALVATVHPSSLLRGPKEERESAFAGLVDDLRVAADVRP
Nature of the data set: 8 M urea-PAGE complex shift.

On to TUTT (ssDNA, deoxyuridine at position 2; 5' phosphate) [pTUTT], for which, in the data set with MsmUdgX [1], the binding result is “binds”.

B1: SSU9:G (dsDNA)
DNA 1: CTCAAGTGUAGGCATGCAAGAGCT
DNA 2: CTTGCATGCCTGCACTTGAGTGCA
modifications: deoxyuridine at position 9 opposite G
Take B1: the binding result with MsmUdgX [2] was “binds”.

CTCAAGTGUAGGCATGCAAGAGCT (ssDNA, deoxyuridine at position 9) [SSU9]: the binding result with MsmUdgX F4 and in the data set with MsmUdgX [2] was “binds” in each case.
